Experimental findings from the supplement of paper PMC11316812 are described below.

± gives the standard deviation of the averaged measurements.

The test system of data set [1] is hTERT-HMEC. The experiment in a line: percentage of EdU-negative (G0-arrested) nuclei per well, 72 h; higher = more G0 arrest. To be noted: reference: sequence is the full UniProt precursor, the tested protein was the secreted form or ectodomain.
The test system of data set [2] is MCF7. The data set is described as above. To be noted: reference: sequence is the full UniProt precursor, the tested protein was the secreted form or ectodomain.
The mark [3] stands for this setting: protein concentration 0.03125 µM.
Setting [4] is: protein concentration 0.3125 µM.
[5] abbreviates: protein concentration 0.0217725 µM.
[6] abbreviates: protein concentration 0.217725 µM.
[7] abbreviates: protein concentration 0.0225 µM.
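Further: secreted proteins added to cultured cells, EdU pulse at the end, nuclei found by Hoechst imaging, EdU status from nuclear versus surrounding ring intensity ratio, PBS as neutral control.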

On to “MEMFQGLLLLLLLSMGGTWASREMLRPRCRPINATLAVEKEGCPVCITVNTTICAGYCPTMTRVLQGVLPALPQVVCNYRDVRFESIRLPGCPRGVNPVVSYAVALSCQCALCRRSTTDCGGPKDHPLTCDDPRFQASSSSKAPPPSLPSPSRLPGPSDTPILPQ”, for which the “percentage of EdU-negative” value in data set [1] (setting [3]) was determined as 5.61 ± 0.69%; in data set [1] (setting [4]), 5.26 ± 0.82%; in data set [2] (setting [3]) it was 24.4 ± 2.5%; in data set [2] (setting [4]) it was 25 ± 1%.

With “MEMLQGLLLLLLLSMGGAWASREPLRPWCHPINAILAVEKEGCPVCITVNTTICAGYCPTMMRVLQAVLPPLPQVVCTYRDVRFESIRLPGCPRGVDPVVSFPVALSCRCGPCRRSTSDCGGPKDHPLTCDHPQLSGLLFL”, the “percentage of EdU-negative” value was 5.24 ± 1% in data set [1] (setting [3]), 5.19 ± 1% in data set [1] (setting [4]), 25.1 ± 1.9% in data set [2] (setting [3]) and 25.5 ± 0.84% in data set [2] (setting [4]).

For the sequence “MENPSPAAALGKALCALLLATLGAAGQPLGGESICSARALAKYSITFTGKWSQTAFPKQYPLFRPPAQWSSLLGAAHSSDYSMWRKNQYVSNGLRDFAERGEAWALMKEIEAAGEALQSVHAVFSAPAVPSGTGQTSAELEVQRRHSLVSFVVRIVPSPDWFVGVDSLDLCDGDRWREQAALDLYPYDAGTDSGFTFSSPNFATIPQDTVTEITSSSPSHPANSFYYPRLKALPPIARVTLVRLRQSPRAFIPPAPVLPSRDNEIVDSASVPETPLDCEVSLWSSWGLCGGHCGRLGTKSRTRYVRVQPANNGSPCPELEEEAECVPDNCV [Q9BUD6]”, the “percentage of EdU-negative” value in data set [1] (setting [5]) was 4.15 ± 0.79%; in data set [1] (setting [6]), 7.892 ± 0.078%; in data set [2] (setting [5]), 23.8 ± 0.42%; in data set [2] (setting [6]), 26.9 ± 1.5%.

With “MEPAAALHFSLPASLLLLLLLLLLSLCALVSAQFTVVGPANPILAMVGENTTLRCHLSPEKNAEDMEVRWFRSQFSPAVFVYKGGRERTEEQMEEYRGRITFVSKDINRGSVALVIHNVTAQENGIYRCYFQEGRSYDEAILRLVVAGLGSKPLIEIKAQEDGSIWLECISGGWYPEPLTVWRDPYGEVVPALKEVSIADADGLFMVTTAVIIRDKYVRNVSCSVNNTLLGQEKETVIFIPESFMPSASPWMVALAVILTASPWMVSMTVILAVFIIFMAVSICCIKKLQREKKILSGEKKVEQEEKEIAQQLQEELRWRRTFLHAADVVLDPDTAHPELFLSEDRRSVRRGPYRQRVPDNPERFDSQPCVLGWESFASGKHYWEVEVENVMVWTVGVCRHSVERKGEVLLIPQNGFWTLEMFGNQYRALSSPERILPLKESLCRVGVFLDYEAGDVSFYNMRDRSHIYTCPRSAFTVPVRPFFRLGSDDSPIFICPALTGASGVMVPEEGLKLHRVGTHQSL [Q8WVV5]”, the “percentage of EdU-negative” value in data set [1] (setting [7]) was found to be 4.5399 ± 0.0037%; in data set [1] (protein concentration 0.225 µM), 8.99 ± 1.1%; in data set [2] (setting [7]), 25.6 ± 3.6%; in data set [2] (protein concentration 0.225 µM), 27.8 ± 0.4%.

“MEPFTNDRLQLPRNMIENSMFEEEPDVVDLAKEPCLHPLEPDEVEYEPRGSRLLVRGLGEHEMEEDEEDYESSAKLLGMSFMNRSSGLRNSATGYRQSPDGACSVPSARTMVVCAFVIVVAVSVIMVIYLLPRCTFTKEGCHKKNQSIGLIQPFATNGKLFPWAQIRLPTAVVPLRYELSLHPNLTSMTFRGSVTISVQALQVTWNIILHSTGHNISRVTFMSAVSSQEKQAEILEYAYHGQIAIVAPEALLAGHNYTLKIEYSANISSSYYGFYGFSYTDESNEKKYFAATQFEPLAARSAFPCFDEPAFKATFIIKIIRDEQYTALSNMPKKSSVVLDDGLVQDEFSESVKMSTYLVAFIVGEMKNLSQDVNGTLVSIYAVPEKIGQVHYALETTVKLLEFFQNYFEIQYPLKKLDLVAIPDFEAGAMENWGLLTFREETLLYDSNTSSMADRKLVTKIIAHELAHQWFGNLVTMKWWNDLWLNEGFATFMEYFSLEKIFKELSSYEDFLDARFKTMKKDSLNSSHPISSSVQSSEQIEEMFDSLSYFKGSSLLLMLKTYLSEDVFQHAVVLYLHNHSYASIQSDDLWDSFNEVTNQTLDVKRMMKTWTLQKGFPLVTVQKKGKELFIQQERFFLNMKPEIQPSDTSYLWHIPLSYVTEGRNYSKYQSVSLLDKKSGVINLTEEVLWVKVNINMNGYYIVHYADDDWEALIHQLKINPYVLSDKDRANLINNIFELAGLGKVPLKRAFDLINYLGNENHTAPITEALFQTDLIYNLLEKLGYMDLASRLVTRVFKLLQNQIQQQTWTDEGTPSMRELRSALLEFACTHNLGNCSTTAMKLFDDWMASNGTQSLPTDVMTTVFKVGAKTDKGWSFLLGKYISIGSEAEKNKILEALASSEDVRKLYWLMKSSLNGDNFRTQKLSFIIRTVGRHFPGHLLAWDFVKENWNKLVQKFPLGSYTIQNIVAGSTYLFSTKTHLSEVQAFFENQSEATFRLRCVQEALEVIQLNIQWMEKNLKSLTWWL [Q9UIQ6]”: the “percentage of EdU-negative” value in data set [1] (setting [7]) stood at 4.48 ± 0.24%; in data set [1] (protein concentration 0.225 µM), 11.1 ± 0.58%; in data set [2] (setting [7]), 26.9 ± 1.8%; in data set [2] (protein concentration 0.225 µM), 29.26 ± 0.17%.

As to “MEPLRLLILLFVTELSGAHNTTVFQGVAGQSLQVSCPYDSMKHWGRRKAWCRQLGEKGPCQRVVSTHNLWLLSFLRRWNGSTAITDDTLGGTLTITLRNLQPHDAGLYQCQSLHGSEADTLRKVLVEVLADPLDHRDAGDLWFPGESESFEDAHVEHSISRSLLEGEIPFPPTSILLLLACIFLIKILAASALWAAAWHGQKPGTHPPSELDCGHDPGYQLQTLPGLRDT [Q9NZC2]”, the “percentage of EdU-negative” value came to 5.63 ± 0.64% in data set [1] (setting [7]), 7.25 ± 1.5% in data set [1] (protein concentration 0.225 µM), 23.6 ± 1.7% in data set [2] (setting [7]) and 29.3 ± 2.9% in data set [2] (protein concentration 0.225 µM).
